The values below come from patent US20210147552A1 (UNIVERSITETET I OSLO, published 2021).

The labels stand for the following.
B1: 12mer DQ2.5-glia-α2 peptide (free) (peptide)
peptide: PQPELPYPQPQL
notes: also called free peptide
B2: 12mer DQ2.5-glia-α1a peptide (free) (peptide)
peptide: QLQPFPQPELPY
notes: also called free peptide
B3: 206 hIgG1 (antibody, V domains shown)
VH: QVQLVQSGAEVKKPGSSVKVSCKASGGTFSSYAISWVRQAPGQGLEWMGGIIPIFGTANYAQKFQGRVTITADESTSTAYMELSSLRSEDTAVYYCARDVQRMGMDVWGQGTTVTVSS
VL: DIQMTQSPSSVSTSVGDRVTITCRASQDISNWLAWYQQKPGKAPKLLIYDSSTLQSGVPSRFSGSGSGTDFTLTISTLQPEDFATYYCQQFNSYPLTFGGGTKVDIKR
notes: full-length human IgG1/kappa
B4: 228 hIgG1 (antibody, V domains shown)
VH: QVQLVQSGAEVKKPGSSVKVSCKASGGTFSSYAISWVRQAPGQGLEWMGGIIPIFGTANYAQKFQGRVTITADESTSTAYMELSSLRSEDTAVYYCARGQVLIWTYYYGMDVWGQGTTVTVSS
VL: DIRLTQSPSSLSASVGDRVTITCQASQDISNYLNWYQQKPGKAPKLLIYDASNLETGVPSRFSGSGSGTDFTFIISSLQPEDIATYYCQQYDNLPLTFGGGTKLEIKR
notes: full-length human IgG1/kappa
B5: R2A1-8E hIgG1 (antibody, V domains shown)
VH: QVQLQQSGPGLVKPSQTLSLTCAISGDSVSSNSAAWNWIRQSPSRGLEWLGRTYYRSKWYNDYAVSVKSRITINPDTSKNQFSLQLNSVTPEDTAVYYCARDSSSGWHPYGMDVWGQGTTVTVSS
VL: DIQVTQSPSFLSASVGDRVTITCRASHDISSYLAWYQHKPGKAPKLLIHAASILQSGVPSRFSGSGSGTEFTLTISSLQPEDFATYYCQQLNSYPLLTFGGGTKVDIKR
notes: full-length human IgG1/kappa made in HEK293E; heavy chain constant region with N297G; also called mAb R2A1-8E
B6: 220 hIgG1 (antibody, V domains shown)
VH: QVQLVESGAEVKKPGSSVKVSCKASGGTFSSYAISWVRQAPGQGLEWMGGIIPIFGTANYAQKFQGRATITADESTSTAYMELSSLRSEDTAVYYCARGRNTYCSGGSCYSPHFDYWGQGTLVTVSS
VL: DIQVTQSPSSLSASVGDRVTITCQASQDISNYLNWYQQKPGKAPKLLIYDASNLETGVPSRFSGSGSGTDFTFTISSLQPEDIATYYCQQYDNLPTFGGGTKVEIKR
notes: full-length human IgG1/kappa
B7: R3A2-9F hIgG1 (antibody)
heavy: not shown
light: DIQVTQSPSFLSASVGDRVTITCRASHDISSYLAWYQHKPGKAPKLLIHAASILQSGVPSRFSGSGSGTEFTLTISSLQPEDFATYYCQDLNSYPLFGQGTRLEIKRTVAAPSVFIFPPSDEQLKSGTASVVCLLNNFYPREAKVQWKVDNALQSGNSQESVTEQDSKDSTYSLSSTLTLSKADYEKHKVYACEVTHQGLSSPVTKSFNRGEC
notes: also called mAb R3A2-9F
B8: R4A1-3A (107) hIgG1 (antibody, V domains shown)
VH: B5 VH
VL: DIQVTQSPSFLSASVGDRVTITCRASHDISSYLAWYQHKPWKAPKLLIHAASILQSGVPSRFSGSGSGTEFTLTISSLQPEDFATYYCQDLNSYPLFGQGTRLEIKR
notes: full-length human IgG1/kappa made in HEK293E; heavy chain constant region with N297G; also called mAb R4A1-3A
B9: 33mer α-gliadin peptide (peptide)
peptide: LQLQPFPQPELPYPQPELPYPQPELPYPQPQPF

Experiment [1] has as its target B7. Briefly: competition ELISA: 0.1 µg/ml hIgG1 pre-incubated with the competitor, then binding to plate-bound HLA-DQ2.5:DQ2.5-glia-α1a. As to the method: (§1) FIG. 2. […] (C) Eight different HLA-DQ2.5:gluten peptide complexes and HLA-DQ2.5:CLIP2 were used in ELISA for specificity analysis (n=2). mAb 2.12.E11 was included to control pMHC capture levels.
(§2) 96-well MaxiSorp microtiter plates (Nunc) were coated overnight at 4° C. with NeutrAvidin (Avidity, 10 ug/ml in PBS), before blocking with 4% skim milk powder in PBS (w/v). Biotinylated pMHC was captured onto the NeutrAvidin. […] 0.2 μg/ml mAb 2.12.E11 [Viken, H. D., et al., 1995] was detected using polyclonal anti-mouse IgG Fc-ALP (Sigma, 1:2000). […] Assays were performed at RT with duplicate wells, except for single clone screenings with only one well per sample.
(In an ELISA, binding on a coated surface is turned into a signal by an enzyme label.)

The target in experiment [2] is B5. Described as above. The procedure: as §1, §2
Experiment [3] has as its target B8. The experiment is described as above. The procedure:
as §1, §2

Experiment [4] addresses T1, BSA (Bos taurus, UniProt P02769).
T1 construct: not specified; also called bovine serum albumin
Put plainly: ELISA, hIgG1, control well with BSA. As to the method:
FIG. 14. […] The peptides are annotated according to Sollid, L. M., et al., (Immunogenetics, 2012, 64(6): 455-460) (A). […] Error bars illustrate mean±SD of duplicates. […] HSA=human serum albumin; BSA=bovine serum albumin.
Assays were performed at RT with duplicate wells. Between each layer, the plates were washed 3× with PBST.

The target in experiment [5] is B1. Briefly: competition ELISA, hIgG1 pre-incubated with competitor. As to the method: as §1, §2
The target in the experiment “33mer α-gliadin peptide” is B9. The description is as above. As to the method:
as §1, §2

Experiment [6] concerns the target B2. The description is as above. The procedure:
as §1, §2

For experiment [7], the target named is T1, BSA. Briefly: ELISA, hIgG1 (printed anti-glia1a_no106), control well with BSA.
The target in experiment [8] is B7. Briefly: competition ELISA: 0.1 µg/ml hIgG1 pre-incubated with 33mer α-gliadin, then binding to plate-bound HLA-DQ2.5:DQ2.5-glia-α1a. As to the method: as §1, §2
In experiment [9] the target is B5. Described as above. The procedure:
as §1, §2

Experiment [10] deals with B8. The experiment is described as above. As to the method: as §1, §2

T1 sequence (P02769 25-607 limits assumed): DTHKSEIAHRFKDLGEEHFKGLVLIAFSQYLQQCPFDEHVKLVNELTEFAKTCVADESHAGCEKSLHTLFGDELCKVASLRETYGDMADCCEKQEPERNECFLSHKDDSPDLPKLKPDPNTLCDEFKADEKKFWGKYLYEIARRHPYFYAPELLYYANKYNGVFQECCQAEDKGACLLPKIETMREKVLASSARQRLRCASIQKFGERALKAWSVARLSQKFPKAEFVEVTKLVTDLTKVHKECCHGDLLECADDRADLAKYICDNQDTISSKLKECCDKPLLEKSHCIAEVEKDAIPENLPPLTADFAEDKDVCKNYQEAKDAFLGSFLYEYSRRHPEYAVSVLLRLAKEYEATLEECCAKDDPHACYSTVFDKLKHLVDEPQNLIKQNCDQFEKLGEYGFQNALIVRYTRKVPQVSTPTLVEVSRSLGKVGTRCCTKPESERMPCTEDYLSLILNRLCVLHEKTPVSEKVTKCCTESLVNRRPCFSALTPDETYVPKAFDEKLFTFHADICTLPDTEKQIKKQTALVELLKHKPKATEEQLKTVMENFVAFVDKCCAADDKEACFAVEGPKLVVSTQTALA

Consider B1, for which the binding result with R3A2-9F hIgG1 [1], in the experiment with R2A1-8E hIgG1 [2] and with R4A1-3A (107) hIgG1 [3] was “no binding (tested: 1 µM)” in each case.

Regarding B2, the binding result with R3A2-9F hIgG1 [1], with R2A1-8E hIgG1 [2] and with R4A1-3A (107) hIgG1 [3] was “no binding (tested: 1 µM)” each time.

In the case of B3, the binding result with BSA [4] is reported as “no binding (tested: 0.5 µg/ml)”.

B4: the binding result in the experiment with BSA [4] is reported as “no binding (tested: 0.5 µg/ml)”.

For B5, the binding result (in experiment [5]; in the experiment with 33mer α-gliadin peptide; in experiment [6]) was “no binding (tested: 1 µM)” each time.

On to B6, for which, in the experiment with BSA [4], the binding result was “no binding (tested: 0.5 µg/ml)”.

B7: the binding result is “no binding (tested: 0.5 µg/ml)” with BSA [7], “no binding (tested: 1 µM)” in experiment [5], “no binding (tested: 1 µM)” with 33mer α-gliadin peptide and “no binding (tested: 1 µM)” in [6].

In the case of B8, the binding result (in [5]; with 33mer α-gliadin peptide; in experiment [6]) was “no binding (tested: 1 µM)” each time.

In the case of B9, the binding result with R3A2-9F hIgG1 [8], with R2A1-8E hIgG1 [9] and with R4A1-3A (107) hIgG1 [10] was “no binding (tested: 1 µM)” throughout.
